{"source": "patent US9029508", "about": "(dated 2015)"}
{"biological_target": "DLL4 (human, UniProt Q9NR61)", "sequence (Q9NR61 27-524)": "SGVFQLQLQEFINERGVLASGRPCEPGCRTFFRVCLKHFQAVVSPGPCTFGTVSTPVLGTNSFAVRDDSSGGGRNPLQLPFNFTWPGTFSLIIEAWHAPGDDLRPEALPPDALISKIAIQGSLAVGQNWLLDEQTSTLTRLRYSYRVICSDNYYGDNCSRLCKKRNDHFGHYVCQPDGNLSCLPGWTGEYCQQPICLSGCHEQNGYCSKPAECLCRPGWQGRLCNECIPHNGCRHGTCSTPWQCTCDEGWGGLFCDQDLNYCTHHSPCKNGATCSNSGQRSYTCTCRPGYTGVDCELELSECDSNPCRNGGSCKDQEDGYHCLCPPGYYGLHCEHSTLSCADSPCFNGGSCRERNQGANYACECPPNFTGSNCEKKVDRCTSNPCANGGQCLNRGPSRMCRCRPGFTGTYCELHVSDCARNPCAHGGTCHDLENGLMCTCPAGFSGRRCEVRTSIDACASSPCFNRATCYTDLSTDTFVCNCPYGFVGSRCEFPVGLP", "experiment": "ELISA", "units": {"EC50": "nM"}}
{"binder": "DVD486 DLL4 arm (antibody, DVD-Ig inner) chain 1: EVQLVESGGGLVQPGGSLRLSCAASGFTFTDNWISWVRQAPGKGLEWVGYISPNSGFTYYADSVKGRFTISADTSKNTAYLQMNSLRAEDTAVYYCARDNFGGYFDYWGQGTLVTVSS chain 2: DIQMTQSPSSLSASVGDRVTITCRASQDVSTAVAWYQQKPGKAPKLLIYSASFLYSGVPSRFSGSGSGTDFTLTISSLQPEDFATTYYCQQSYTGTVTFGQGTKVEIKR", "EC50": 0.59}
{"binder": "DVD467 DLL4 arm (antibody, DVD-Ig outer) chain 1: EVQLVESGGGLVQPGGSLRLSCAASGFTFTDNWISWVRQAPGKGLEWVGYISPNSGFTYYADSVKGRFTISADTSKNTAYLQMNSLRAEDTAVYYCARDNFGGYFDYWGQGTLVTVSS chain 2: DIQMTQSPSSLSASVGDRVTITCRASQDVSTAVAWYQQKPGKAPKLLIYSASFLYSGVPSRFSGSGSGTDFTLTISSLQPEDFATTYYCQQSYTGTVTFGQGTKVEIKR", "EC50": 0.54}
{"binder": "DVD470 DLL4 arm (antibody, DVD-Ig inner) chain 1: EVQLVESGGGLVQPGGSLRLSCAASGFTFTDNWISWVRQAPGKGLEWVGYISPNSGFTYYADSVKGRFTISADTSKNTAYLQMNSLRAEDTAVYYCARDNFGGYFDYWGQGTLVTVSS chain 2: DIQMTQSPSSLSASVGDRVTITCRASQDVSTAVAWYQQKPGKAPKLLIYSASFLYSGVPSRFSGSGSGTDFTLTISSLQPEDFATTYYCQQSYTGTVTFGQGTKVEIKR", "EC50": 0.19}
{"binder": "DVD484 DLL4 arm (antibody, DVD-Ig inner) chain 1: EVQLVESGGGLVQPGGSLRLSCAASGFTFTDNWISWVRQAPGKGLEWVGYISPNSGFTYYADSVKGRFTISADTSKNTAYLQMNSLRAEDTAVYYCARDNFGGYFDYWGQGTLVTVSS chain 2: DIQMTQSPSSLSASVGDRVTITCRASQDVSTAVAWYQQKPGKAPKLLIYSASFLYSGVPSRFSGSGSGTDFTLTISSLQPEDFATTYYCQQSYTGTVTFGQGTKVEIKR", "EC50": 1.75}
{"binder": "DVD468 DLL4 arm (antibody, DVD-Ig inner) chain 1: EVQLVESGGGLVQPGGSLRLSCAASGFTFTDNWISWVRQAPGKGLEWVGYISPNSGFTYYADSVKGRFTISADTSKNTAYLQMNSLRAEDTAVYYCARDNFGGYFDYWGQGTLVTVSS chain 2: DIQMTQSPSSLSASVGDRVTITCRASQDVSTAVAWYQQKPGKAPKLLIYSASFLYSGVPSRFSGSGSGTDFTLTISSLQPEDFATTYYCQQSYTGTVTFGQGTKVEIKR", "EC50": 2.28}
{"binder": "DVD485 DLL4 arm (antibody, DVD-Ig outer) chain 1: EVQLVESGGGLVQPGGSLRLSCAASGFTFTDNWISWVRQAPGKGLEWVGYISPNSGFTYYADSVKGRFTISADTSKNTAYLQMNSLRAEDTAVYYCARDNFGGYFDYWGQGTLVTVSS chain 2: DIQMTQSPSSLSASVGDRVTITCRASQDVSTAVAWYQQKPGKAPKLLIYSASFLYSGVPSRFSGSGSGTDFTLTISSLQPEDFATTYYCQQSYTGTVTFGQGTKVEIKR", "EC50": 1.41}
{"binder": "DVD477 DLL4 arm (antibody, DVD-Ig outer) chain 1: EVQLVESGGGLVQPGGSLRLSCAASGFTFTDNWISWVRQAPGKGLEWVGYISPNSGFTYYADSVKGRFTISADTSKNTAYLQMNSLRAEDTAVYYCARDNFGGYFDYWGQGTLVTVSS chain 2: DIQMTQSPSSLSASVGDRVTITCRASQDVSTAVAWYQQKPGKAPKLLIYSASFLYSGVPSRFSGSGSGTDFTLTISSLQPEDFATTYYCQQSYTGTVTFGQGTKVEIKR", "EC50": 0.69}
{"binder": "DVD519 DLL4 arm (antibody, V domains shown, DVD-Ig outer) VH: EVQLQQSGPELEKPGASVKISCKASGYSFTGYNMNWVKQSNGKSLEWIGNIDPYFGGTNYNQKFKGKATLTVDKSSSTAYMQLKSLTSEDSAVYYCARNYDYDGGCFDYWGQGTTLTVSS VL: QAVVTQESALTTSPGETVTLTCRSSTGAVTTSNYANWVQEKPDHLFTGLIGGTNNRAPGVPARFSGSLIGDKAALTITGAQTEDEAIYFCALWYSNHWVFGGGTKLTVLG", "EC50": 1.53}
{"binder": "DVD515 DLL4 arm (antibody, V domains shown, DVD-Ig outer) VH: EVQLQQSGPELEKPGASVKISCKASGYSFTGYNMNWVKQSNGKSLEWIGNIDPYFGGTNYNQKFKGKATLTVDKSSSTAYMQLKSLTSEDSAVYYCARNYDYDGGCFDYWGQGTTLTVSS VL: QAVVTQESALTTSPGETVTLTCRSSTGAVTTSNYANWVQEKPDHLFTGLIGGTNNRAPGVPARFSGSLIGDKAALTITGAQTEDEAIYFCALWYSNHWVFGGGTKLTVLG", "EC50": 0.2}
{"binder": "DVD512 DLL4 arm (antibody, V domains shown, DVD-Ig inner) VH: EVQLQQSGPELEKPGASVKISCKASGYSFTGYNMNWVKQSNGKSLEWIGNIDPYFGGTNYNQKFKGKATLTVDKSSSTAYMQLKSLTSEDSAVYYCARNYDYDGGCFDYWGQGTTLTVSS VL: QAVVTQESALTTSPGETVTLTCRSSTGAVTTSNYANWVQEKPDHLFTGLIGGTNNRAPGVPARFSGSLIGDKAALTITGAQTEDEAIYFCALWYSNHWVFGGGTKLTVLG", "EC50": 1.71}
{"binder": "DVD529 DLL4 arm (antibody, V domains shown, DVD-Ig outer) VH: EVQLQQSGPELEKPGASVKISCKASGYSFTGYNMNWVKQSNGKSLEWIGNIDPYFGGTNYNQKFKGKATLTVDKSSSTAYMQLKSLTSEDSAVYYCARNYDYDGGCFDYWGQGTTLTVSS VL: QAVVTQESALTTSPGETVTLTCRSSTGAVTTSNYANWVQEKPDHLFTGLIGGTNNRAPGVPARFSGSLIGDKAALTITGAQTEDEAIYFCALWYSNHWVFGGGTKLTVLG", "EC50": 0.1}
{"binder": "DVD521 DLL4 arm (antibody, V domains shown, DVD-Ig outer) VH: EVQLQQSGPELEKPGASVKISCKASGYSFTGYNMNWVKQSNGKSLEWIGNIDPYFGGTNYNQKFKGKATLTVDKSSSTAYMQLKSLTSEDSAVYYCARNYDYDGGCFDYWGQGTTLTVSS VL: QAVVTQESALTTSPGETVTLTCRSSTGAVTTSNYANWVQEKPDHLFTGLIGGTNNRAPGVPARFSGSLIGDKAALTITGAQTEDEAIYFCALWYSNHWVFGGGTKLTVLG", "EC50": 0.26}
{"binder": "DVD497 DLL4 arm (antibody, V domains shown, DVD-Ig outer) VH: EVQLQQSGPELVKPGASVKMSCKASGYTFTSYVINWVKQKPGQGLEWIGLINPYNDGTKYNEKFKVKATLTSDKSSSTAYMELSSLTSEDSAVYYCASYYYGSRYYFDYWGQGTTLTVSS VL: DIQMTQSSSYLSVSLGGRVTITCKASDHINNWLAWYQQKPGNAPRLLISGATSLETGVPSRFSGSGSGKDYTLSITSLQTEDVATYYCQQYWSIPLTFGAGTKLELKR", "EC50": 0.53}
{"binder": "DVD487 DLL4 arm (antibody, V domains shown, DVD-Ig outer) VH: EVQLQQSGPELVKPGASVKMSCKASGYTFTSYVINWVKQKPGQGLEWIGLINPYNDGTKYNEKFKVKATLTSDKSSSTAYMELSSLTSEDSAVYYCASYYYGSRYYFDYWGQGTTLTVSS VL: DIQMTQSSSYLSVSLGGRVTITCKASDHINNWLAWYQQKPGNAPRLLISGATSLETGVPSRFSGSGSGKDYTLSITSLQTEDVATYYCQQYWSIPLTFGAGTKLELKR", "EC50": 0.14}
{"binder": "DVD509 DLL4 arm (antibody, V domains shown, DVD-Ig outer) VH: EVQLQQSGPELVKPGASVKMSCKASGYTFTSYVINWVKQKPGQGLEWIGLINPYNDGTKYNEKFKVKATLTSDKSSSTAYMELSSLTSEDSAVYYCASYYYGSRYYFDYWGQGTTLTVSS VL: DIQMTQSSSYLSVSLGGRVTITCKASDHINNWLAWYQQKPGNAPRLLISGATSLETGVPSRFSGSGSGKDYTLSITSLQTEDVATYYCQQYWSIPLTFGAGTKLELKR", "EC50": 0.21}
{"binder": "DVD489 DLL4 arm (antibody, V domains shown, DVD-Ig outer) VH: EVQLQQSGPELVKPGASVKMSCKASGYTFTSYVINWVKQKPGQGLEWIGLINPYNDGTKYNEKFKVKATLTSDKSSSTAYMELSSLTSEDSAVYYCASYYYGSRYYFDYWGQGTTLTVSS VL: DIQMTQSSSYLSVSLGGRVTITCKASDHINNWLAWYQQKPGNAPRLLISGATSLETGVPSRFSGSGSGKDYTLSITSLQTEDVATYYCQQYWSIPLTFGAGTKLELKR", "EC50": 0.62}
{"binder": "DVD458 DLL4 arm (antibody, V domains shown, DVD-Ig inner) VH: QVQLVQSGAEVKKPGASVKISCKASGYSFTAYYIHWVKQAPGQGLEWIGYISSYNGATNYNQKFKGRVTFTTDTSTSTAYMELRSLRSDDTAVYYCARDYDYDVGMDYWGQGTLVTVSS VL: DIVMTQSPDSLAVSLGERATISCRASESVDNYGISFMKWFQQKPGQPPKLLIYAASNQGSGVPDRFSGSGSGTDFTLTISSLQAEDVAVYYCQQSKEVPWTFGGGTKVEIKR", "EC50": 1.54}
{"binder": "DVD445 DLL4 arm (antibody, V domains shown, DVD-Ig outer) VH: QVQLVQSGAEVKKPGASVKISCKASGYSFTAYYIHWVKQAPGQGLEWIGYISSYNGATNYNQKFKGRVTFTTDTSTSTAYMELRSLRSDDTAVYYCARDYDYDVGMDYWGQGTLVTVSS VL: DIVMTQSPDSLAVSLGERATISCRASESVDNYGISFMKWFQQKPGQPPKLLIYAASNQGSGVPDRFSGSGSGTDFTLTISSLQAEDVAVYYCQQSKEVPWTFGGGTKVEIKR", "EC50": 0.17}
{"binder": "DVD461 DLL4 arm (antibody, V domains shown, DVD-Ig outer) VH: QVQLVQSGAEVKKPGASVKISCKASGYSFTAYYIHWVKQAPGQGLEWIGYISSYNGATNYNQKFKGRVTFTTDTSTSTAYMELRSLRSDDTAVYYCARDYDYDVGMDYWGQGTLVTVSS VL: DIVMTQSPDSLAVSLGERATISCRASESVDNYGISFMKWFQQKPGQPPKLLIYAASNQGSGVPDRFSGSGSGTDFTLTISSLQAEDVAVYYCQQSKEVPWTFGGGTKVEIKR", "EC50": 0.52}
{"binder": "DVD460 DLL4 arm (antibody, V domains shown, DVD-Ig inner) VH: QVQLVQSGAEVKKPGASVKISCKASGYSFTAYYIHWVKQAPGQGLEWIGYISSYNGATNYNQKFKGRVTFTTDTSTSTAYMELRSLRSDDTAVYYCARDYDYDVGMDYWGQGTLVTVSS VL: DIVMTQSPDSLAVSLGERATISCRASESVDNYGISFMKWFQQKPGQPPKLLIYAASNQGSGVPDRFSGSGSGTDFTLTISSLQAEDVAVYYCQQSKEVPWTFGGGTKVEIKR", "EC50": 0.64}
{"binder": "DVD452 DLL4 arm (antibody, V domains shown, DVD-Ig inner) VH: QVQLVQSGAEVKKPGASVKISCKASGYSFTAYYIHWVKQAPGQGLEWIGYISSYNGATNYNQKFKGRVTFTTDTSTSTAYMELRSLRSDDTAVYYCARDYDYDVGMDYWGQGTLVTVSS VL: DIVMTQSPDSLAVSLGERATISCRASESVDNYGISFMKWFQQKPGQPPKLLIYAASNQGSGVPDRFSGSGSGTDFTLTISSLQAEDVAVYYCQQSKEVPWTFGGGTKVEIKR", "EC50": 0.34}
{"binder": "DVD464 DLL4 arm (antibody, V domains shown, DVD-Ig inner) VH: QVQLVQSGAEVKKPGASVKISCKASGYSFTAYYIHWVKQAPGQGLEWIGYISSYNGATNYNQKFKGRVTFTTDTSTSTAYMELRSLRSDDTAVYYCARDYDYDVGMDYWGQGTLVTVSS VL: DIVMTQSPDSLAVSLGERATISCRASESVDNYGISFMKWFQQKPGQPPKLLIYAASNQGSGVPDRFSGSGSGTDFTLTISSLQAEDVAVYYCQQSKEVPWTFGGGTKVEIKR", "EC50": 0.8}
